The values below are quoted from earlier work in paper PMC8070256, “Feasibility of Developing Radiotracers for MDM2: Synthesis and Preliminary Evaluation of an ^18F-Labeled Analogue of the MDM2 Inhibitor SP-141” (Pharmaceuticals, 2021).

The target in the series is MDM2 (Homo sapiens) (UniProt Q00987).
Chain of MDM2 (Homo sapiens) (Q00987 whole entry): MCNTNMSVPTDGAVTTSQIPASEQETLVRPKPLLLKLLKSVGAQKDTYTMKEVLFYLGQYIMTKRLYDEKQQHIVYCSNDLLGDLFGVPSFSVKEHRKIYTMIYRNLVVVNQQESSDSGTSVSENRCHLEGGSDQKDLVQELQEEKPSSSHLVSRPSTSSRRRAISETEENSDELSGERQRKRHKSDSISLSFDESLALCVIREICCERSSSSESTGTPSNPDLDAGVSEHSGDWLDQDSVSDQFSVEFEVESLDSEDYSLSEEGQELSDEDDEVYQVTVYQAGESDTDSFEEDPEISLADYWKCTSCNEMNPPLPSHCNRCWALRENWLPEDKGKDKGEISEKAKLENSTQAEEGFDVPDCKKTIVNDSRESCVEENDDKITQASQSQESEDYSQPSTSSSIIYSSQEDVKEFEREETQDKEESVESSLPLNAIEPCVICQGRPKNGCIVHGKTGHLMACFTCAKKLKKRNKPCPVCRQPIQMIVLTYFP

On to p53 peptide (from UniProt P04637), for which the Ki – broadly, the dissociation constant of the complex between target and ligand, obtained from inhibition or displacement – is 1100 nM.
